{"source": "patent US20190248903A1", "about": "(Genentech, published 2019)", "key": {"[1]": {"molecular_target": "T1, cynomolgus CLL-1 on cells (HEK293AD cells stably expressing recombinant cynoCLL-1) (cynomolgus monkey)", "T1 construct": "also called 293AD/cynoCLL-1; 293AD/cynoCLL1", "T1 chain": "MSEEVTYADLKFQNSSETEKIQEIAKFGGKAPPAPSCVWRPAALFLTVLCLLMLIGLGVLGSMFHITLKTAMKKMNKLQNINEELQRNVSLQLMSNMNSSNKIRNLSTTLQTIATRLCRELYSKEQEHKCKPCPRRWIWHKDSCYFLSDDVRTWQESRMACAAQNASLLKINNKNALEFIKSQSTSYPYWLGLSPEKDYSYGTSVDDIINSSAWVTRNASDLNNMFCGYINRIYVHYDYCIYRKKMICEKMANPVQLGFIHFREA", "assay": "Scatchard analysis on 293AD/cynoCLL1 cells", "protocol": "Competition assay mixtures of 50 μL volume containing a fixed concentration of [I¹²⁵] labeled antibody and decreasing concentrations of serially diluted, unlabeled antibody were placed into 96-well plates. HEK293AD cells stably expressing recombinant hu or cynoCLL-1 or HL-60 tumor cells expressing endogenous CLL-1 were cultured in growth media at 37° C. in 5% CO₂. Cells were detached from the flask using Sigma Cell Dissociation Solution and were washed with binding buffer, which consisted of Dulbecco's Modified Eagle Medium (DMEM) with 1% bovine serum albumin (BSA), […] and 0.1% sodium azide. The washed cells were added to the 96 well plates at a density of 100,000 cells in 0.2 mL of binding buffer. […] The final concentration of the unlabeled antibody in the competition assay ranged from 1000 nM through ten 2-fold dilution steps to a 0 nM buffer-only assay. Competition assays were carried out in triplicate. Competition assays were incubated for 2 hours at room temperature. […] The filters were counted on a Wallac Wizard 1470 gamma counter (PerkinElmer Life and Analytical Sciences Inc.; Wellesley, Mass.). The binding data was evaluated using NewLigand software (Genentech), which uses the fitting algorithm of Munson and Robard to determine the binding affinity of the antibody (Munson and Robard 1980)."}, "[2]": {"molecular_target": "T1, cynomolgus CLL-1 on cells (HEK293AD …)", "assay": "Scatchard analysis on 293AD/cynoCLL1 cells; 293AD/cynoCLL1 cells"}}, "data": [{"binder": "humanized 6E7.L4H1e (antibody, V domains shown, also called h6E7.L4H1e; 6E7.L4H1eN54) VH: EVQLVQSGAEVKKPGASVKVSCKASGYSFTDYYMHWVRQAPGQGLEWIGRINPYNGAAFYSQNFKDRVTLTVDTSTSTAYLELSSLRSEDTAVYYCAIERGADLEGYAMDYWGQGTLVTVSS VL: DIQMTQSPSSLSASVGDRVTITCRASQSVSTSSYNYMHWYQQKPGKPPKLLIKYASNLESGVPSRFSGSGSGTDFTLTISSLQPEDFATYYCQHSWEIPLTFGQGTKVEIK", "values": [{"measurement": "Kd", "setting": "[1]", "value": 220, "unit": "pM"}, {"measurement": "Kd", "setting": "[2]", "value": 670, "unit": "pM"}]}]}
